Data: paper PMC8500918

Target: Cadherin-11 extracellular domain 1 (EC1), wild type
Test: NMR

Cadherin-11 extracellular domain 1 (EC1), wild type, sequence (P55288 1-98): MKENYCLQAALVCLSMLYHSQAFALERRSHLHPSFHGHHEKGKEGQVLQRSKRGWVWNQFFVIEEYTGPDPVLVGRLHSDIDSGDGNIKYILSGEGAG

In the case of “Cadherin-11 extracellular domain 1 (EC1), wild type (domain or fragment)”, the stoichiometry N is reported as 2.
